The target in assay [1] is T1, CD133 protein (UniProt O43490 20-865, limits assumed).
T1 construct: whole, on cells; Presented on AC133/293 cells: paraformaldehyde-fixed in the cellular ELISA, unfixed in the phage FACS; also called CD133 antigen; AC133
T1 sequence (looked up): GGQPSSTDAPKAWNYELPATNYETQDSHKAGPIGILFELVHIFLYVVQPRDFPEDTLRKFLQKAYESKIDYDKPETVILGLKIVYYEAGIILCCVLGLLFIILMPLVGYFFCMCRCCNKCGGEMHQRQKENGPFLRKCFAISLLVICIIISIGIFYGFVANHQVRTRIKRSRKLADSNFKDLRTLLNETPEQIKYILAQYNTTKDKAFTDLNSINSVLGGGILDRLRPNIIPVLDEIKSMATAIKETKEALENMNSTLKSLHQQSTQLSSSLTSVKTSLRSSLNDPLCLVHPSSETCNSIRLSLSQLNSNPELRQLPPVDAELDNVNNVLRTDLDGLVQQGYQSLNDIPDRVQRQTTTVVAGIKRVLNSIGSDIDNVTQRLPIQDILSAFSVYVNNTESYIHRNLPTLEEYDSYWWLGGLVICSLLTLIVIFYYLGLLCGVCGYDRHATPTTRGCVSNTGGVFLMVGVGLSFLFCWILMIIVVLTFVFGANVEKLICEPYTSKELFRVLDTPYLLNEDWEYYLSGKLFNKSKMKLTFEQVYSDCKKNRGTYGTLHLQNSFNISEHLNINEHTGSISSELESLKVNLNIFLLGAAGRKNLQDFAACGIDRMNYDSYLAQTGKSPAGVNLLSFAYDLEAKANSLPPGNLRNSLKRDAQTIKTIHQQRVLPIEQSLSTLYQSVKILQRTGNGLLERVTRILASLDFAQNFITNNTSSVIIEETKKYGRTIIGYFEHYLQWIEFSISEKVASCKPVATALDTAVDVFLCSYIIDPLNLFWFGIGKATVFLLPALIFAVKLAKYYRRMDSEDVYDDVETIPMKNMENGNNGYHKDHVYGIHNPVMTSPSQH
Kind of assay: cellular ELISA on fixed AC133/293 cells. The method, then:
1×10⁵ cells in 0.2 ml of medium were added to each well and incubated o/n at 37° C., 5% CO₂ to allow cells to attach to the surface of the plate. The next day wells were washed once with 0.2 ml PBS and fixed with 0.1 ml 2% Paraformaldehyde (in PBS, pH 7.4) for 10-20 min at RT. Wells were washed with PBS-T (PBS+0.1% Tween-20) and blocked with either 1× RotiBlock or 3% milk in PBS-T for 1 hour at RT. After washing with PBS-T, serial dilutions of the respective antibody were added to the wells and incubated at RT for at least one hour while shaking. After washing with PBS-T, 0.1 ml of StrepMAb-Classic-HRP (1:10000 in PBS-T, lba BioTagnology, Göttingen, Germany) or of horseradish peroxidase linked anti-mouse IgG (1:10000 in PBS-T, Dianova, Hamburg, Germany) was added and incubated at RT for one hour with shaking. After washing with PBS-T, 0.1 ml of 1-Step Ultra TMB-ELISA substrate (Thermo Scientific, Braunschweig, Germany) was added and incubated until an adequate blue staining developed. To stop the reaction 0.1 ml 1 M H₂SO₄ was added to each well and absorbance at 450 nm and 595 nm as a reference was measured with an infinite F200 plate reader (TECAN, Männedorf, Switzerland). […] Signals were detected using an anti-mouse IgG-HRP antibody (1:10000 in PBS-T, Dianova, Hamburg, Germany). […]
A general note: ELISA stands for enzyme-linked immunosorbent assay.

The next assay addresses T2, bovine collagen I (bovine, UniProt P02453 162-1217; P02465 80-1117, limits assumed).
T2 construct: also called immobilized collagen I; soluble collagen I
Kind of assay: ELISA on immobilized bovine collagen I. The method, then:
Fc-protein was used as negative control.
An Immulon 2 HB 96-well plate (NUNC, Rochester, N.Y.) was coated with 0.1 ml 1 μg/ml bovine collagen I in 15 mM Na₂CO3, 35 mM NaHCO3, pH 9.6 o/n at 4° C. Wells were washed with PBS-T, blocked with 0.1 ml 1× RotiBlock (Roth, Karlsruhe, Germany) in PBS-T for one hour and washed again before addition of 0.1 ml of threefold dilutions of fusion protein. After one hour incubation at RT with shaking, wells were washed with PBS-T. Wells were incubated with 0.1 ml anti-human IgG-HRP (Dianova, Hamburg, Germany) 1:10000 in PBS-T for one hour at RT with shaking. The plate was washed with PBS-T and incubated with 0.1 ml 1-Step Ultra TMB-ELISA (PIERCE, Rockford, Ill.). After blue staining had developed sufficiently, reactions were stopped by addition of 0.1 ml 1 M H₂SO₄. Absorbance was measured at 450 nm and 595 nm as a reference wavelength using an infinite F200 plate reader (TECAN, Männedorf, Switzerland). EC₅₀ values were calculated with Sigma Plot 11 using Four Parameter Logistic.

Assay [2] deals with T1, CD133 protein. Kind of assay: competition cellular ELISA on fixed AC133/293 cells; competitor of 2 nM W6B3H10 mAb. The method, then:
1×10⁵ cells in 0.2 ml of medium were added to each well and incubated o/n at 37° C., 5% CO₂ to allow cells to attach to the surface of the plate. The next day wells were washed once with 0.2 ml PBS and fixed with 0.1 ml 2% Paraformaldehyde (in PBS, pH 7.4) for 10-20 min at RT. Wells were washed with PBS-T (PBS+0.1% Tween-20) and blocked with either 1× RotiBlock or 3% milk in PBS-T for 1 hour at RT. After washing with PBS-T, serial dilutions of the respective antibody were added to the wells and incubated at RT for at least one hour while shaking. After washing with PBS-T, 0.1 ml of StrepMAb-Classic-HRP (1:10000 in PBS-T, lba BioTagnology, Göttingen, Germany) or of horseradish peroxidase linked anti-mouse IgG (1:10000 in PBS-T, Dianova, Hamburg, Germany) was added and incubated at RT for one hour with shaking. After washing with PBS-T, 0.1 ml of 1-Step Ultra TMB-ELISA substrate (Thermo Scientific, Braunschweig, Germany) was added and incubated until an adequate blue staining developed. To stop the reaction 0.1 ml 1 M H₂SO₄ was added to each well and absorbance at 450 nm and 595 nm as a reference was measured with an infinite F200 plate reader (TECAN, Männedorf, Switzerland). […] Signals were detected using an anti-mouse IgG-HRP antibody (1:10000 in PBS-T, Dianova, Hamburg, Germany).

T2 sequence (P02453 162-1217 limits assumed, chain 1 of 2): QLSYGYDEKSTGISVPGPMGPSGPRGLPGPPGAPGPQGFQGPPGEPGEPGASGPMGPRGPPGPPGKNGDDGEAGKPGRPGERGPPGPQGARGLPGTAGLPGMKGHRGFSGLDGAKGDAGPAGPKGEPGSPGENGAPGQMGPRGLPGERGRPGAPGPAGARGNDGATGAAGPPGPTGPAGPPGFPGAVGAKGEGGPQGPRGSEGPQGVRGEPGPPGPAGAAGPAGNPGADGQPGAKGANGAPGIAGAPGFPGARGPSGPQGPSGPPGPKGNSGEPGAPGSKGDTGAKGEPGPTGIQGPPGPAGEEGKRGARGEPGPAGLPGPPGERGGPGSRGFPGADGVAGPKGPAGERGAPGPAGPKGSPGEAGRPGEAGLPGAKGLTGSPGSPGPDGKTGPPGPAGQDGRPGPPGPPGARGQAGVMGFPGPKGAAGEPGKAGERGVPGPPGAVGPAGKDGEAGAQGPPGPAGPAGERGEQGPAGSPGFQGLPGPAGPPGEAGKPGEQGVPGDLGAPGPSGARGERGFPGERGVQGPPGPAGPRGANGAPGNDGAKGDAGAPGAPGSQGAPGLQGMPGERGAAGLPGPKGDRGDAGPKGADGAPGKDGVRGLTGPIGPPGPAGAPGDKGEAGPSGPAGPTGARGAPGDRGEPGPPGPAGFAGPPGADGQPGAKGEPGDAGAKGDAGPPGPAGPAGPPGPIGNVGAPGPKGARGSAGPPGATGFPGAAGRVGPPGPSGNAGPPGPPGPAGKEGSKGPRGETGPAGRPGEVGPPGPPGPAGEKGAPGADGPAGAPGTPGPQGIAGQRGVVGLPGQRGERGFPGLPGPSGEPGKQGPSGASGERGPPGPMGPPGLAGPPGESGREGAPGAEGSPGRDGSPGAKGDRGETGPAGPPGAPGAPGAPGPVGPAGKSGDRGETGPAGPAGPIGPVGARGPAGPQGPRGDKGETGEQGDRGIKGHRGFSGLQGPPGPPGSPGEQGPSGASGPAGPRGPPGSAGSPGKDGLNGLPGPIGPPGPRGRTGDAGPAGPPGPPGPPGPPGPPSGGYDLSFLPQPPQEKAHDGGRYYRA
T2 sequence (P02465 80-1117 limits assumed, chain 2 of 2): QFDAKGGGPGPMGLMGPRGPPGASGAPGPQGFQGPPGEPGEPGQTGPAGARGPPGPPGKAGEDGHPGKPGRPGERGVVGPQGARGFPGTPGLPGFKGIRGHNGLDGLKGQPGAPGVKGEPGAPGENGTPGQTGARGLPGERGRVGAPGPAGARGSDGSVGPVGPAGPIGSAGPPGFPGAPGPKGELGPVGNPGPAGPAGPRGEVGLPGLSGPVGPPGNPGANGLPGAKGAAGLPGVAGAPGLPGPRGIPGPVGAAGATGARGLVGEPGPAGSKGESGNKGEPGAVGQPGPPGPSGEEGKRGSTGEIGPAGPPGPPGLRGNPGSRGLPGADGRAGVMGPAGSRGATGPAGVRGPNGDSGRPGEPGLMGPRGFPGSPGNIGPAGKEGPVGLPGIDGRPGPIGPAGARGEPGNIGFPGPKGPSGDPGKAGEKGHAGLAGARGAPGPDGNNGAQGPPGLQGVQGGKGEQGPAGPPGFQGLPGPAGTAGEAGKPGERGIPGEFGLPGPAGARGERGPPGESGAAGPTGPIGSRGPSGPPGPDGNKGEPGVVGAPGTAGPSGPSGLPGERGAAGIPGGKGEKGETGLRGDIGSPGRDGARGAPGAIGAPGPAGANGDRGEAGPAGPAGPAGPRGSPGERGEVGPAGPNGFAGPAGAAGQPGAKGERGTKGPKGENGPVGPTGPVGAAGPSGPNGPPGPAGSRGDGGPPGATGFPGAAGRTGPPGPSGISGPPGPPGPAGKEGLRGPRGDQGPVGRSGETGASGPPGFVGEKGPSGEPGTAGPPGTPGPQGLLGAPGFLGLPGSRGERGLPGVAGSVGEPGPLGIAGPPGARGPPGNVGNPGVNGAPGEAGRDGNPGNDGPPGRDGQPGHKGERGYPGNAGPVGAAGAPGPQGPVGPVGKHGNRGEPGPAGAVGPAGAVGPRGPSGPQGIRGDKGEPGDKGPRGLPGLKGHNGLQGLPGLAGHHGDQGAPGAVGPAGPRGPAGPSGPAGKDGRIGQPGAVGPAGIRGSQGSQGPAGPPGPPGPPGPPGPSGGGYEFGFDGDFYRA

B1: W6B3H10 monoclonal antibody (antibody, V domains shown)
VH: EVQLQQSGPDLMKPGASVKISCKASGYSFTNYYVHWVKQSLDKSLEWIGYVDPFNGDFNYNQKFKDKATLTVDKSSSTAYMHLSSLTSEDSAVYYCARGGLDWYDTSYWYFDVWGAGTAVTVSS
VL: DILMTQSPKSMSMSLGERVTLSCKASENVDTYVSWYQQKPEQSPKVLIYGASNRYTGVPDRFTGSGSATDFSLTISNVQAEDLADYHCGQSYRYPLTFGAGTKLELK
notes: Mouse monoclonal antibody from hybridoma clone W6B3H10 (subclone of W6B3C1), with gamma heavy chain and kappa light chain; also called W6B3H10 mAb; parental mAb
For B1, the midpoint of the response in the assay with CD133 protein [1], the EC50, lay at 0.12 nM. That is a sub-nanomolar value.

B2: fusion protein scFv-lh-GPVI-FcIgG2 (Fc fusion)
chain: DILMTQSPKSMSMSLGERVTLSCKASENVDTYVSWYQQKPEQSPKVLIYGASNRYTGVPDRFTGSGSATDFSLTISNVQAEDLADYHCGQSYRYPLTFGAGTKLELKGGGGSGGGGSGGGGSEVQLQQSGPDLMKPGASVKISCKASGYSFTNYYVHWVKQSLDKSLEWIGYVDPFNGDFNYNQKFKDKATLTVDKSSSTAYMHLSSLTSEDSAVYYCARGGLDWYDTSYWYFDVWGAGTAVTVSSQSGPLPKPSLQALPSSLVPLEKPVTLRCQGPPGVDLYRLEKLSSSRYQDQAVLFIPAMKRSLAGRYRCSYQNGSLWSLPSDQLELVATGVFAKPSLSAQPGPAVSSGGDVTLQCQTRYGFDQFALYKEGDPAPYKNPERWYRASFPIITVTAAHSGTYRCYSFSSRDPYLWSAPSDPLELVVTGTSVTPSRLPTEPPSSVAEFSEATAELTVSFTNKVFTTETSRSITTSPKESDSPAGPARQYYTKGNGGRVECPPCPAPPVAGPSVFLFPPKPKDTLMISRTPEVTCVVVDVSHEDPEVQFNWYVDGVEVHNAKTKPREEQFNSTFRVVSVLTVVHQDWLNGKEYKCKVSNKGLPAPIEKTISKTKGQPREPQVYTLPPSREEMTKNQVSLTCLVKGFYPSDIAVEWESNGQPENNYKTTPPMLDSDGSFFLYSKLTVDKSRWQQGNVFSCSVMHEALHNHYTQKSLSLSPGK
notes: also called parental fusion protein; mouse fusion protein
Regarding B2, the results for the half-maximal effective concentration (EC50) in the assay with bovine collagen I and with CD133 protein [1] were 6.3 nM and 0.21 nM, respectively. Besides, the concentration for half-maximal inhibition (IC50) (usually the concentration that inhibits the measured activity by half) in the assay with CD133 protein [2] was determined as 3.1 nM.

B3: humanized fusion protein hscFv-lh-GPVI-Fc (Fc fusion)
chain: DIQMTQSPKSLSASVGDRVTITCKASENVDTYVSWYQQKPGKAPKVLIYGASNRYTGVPSRFTGSGSATDFTLTISSLQPEDFATYYCGQSYRYPLTFAQGTKVEIKGGGGSGGGGSGGGGSEVQLVQSGAEVKKPGASVKVSCKASGYSFTNYYVHWVKQAPGQGLEWMGYVDPFNGDFNYNQKFKDRVTLTVDTSTSTAYMELSSLTSEDRAVYYCARGGLDWYDTSYWYFDVWGQGTLVTVSSQSGPLPKPSLQALPSSLVPLEKPVTLRCQGPPGVDLYRLEKLSSSRYQDQAVLFIPAMKRSLAGRYRCSYQNGSLWSLPSDQLELVATGVFAKPSLSAQPGPAVSSGGDVTLQCQTRYGFDQFALYKEGDPAPYKNPERWYRASFPIITVTAAHSGTYRCYSFSSRDPYLWSAPSDPLELVVTGTSVTPSRLPTEPPSSVAEFSEATAELTVSFTNKVFTTETSRSITTSPKESDSPAGPARQYYTKGNGGRVECPPCPAPPVAGPSVFLFPPKPKDTLMISRTPEVTCVVVDVSHEDPEVQFNWYVDGVEVHNAKTKPREEQFNSTFRVVSVLTVVHQDWLNGKEYKCKVSNKGLPAPIEKTISKTKGQPREPQVYTLPPSREEMTKNQVSLTCLVKGFYPSDIAVEWESNGQPENNYKTTPPMLDSDGSFFLYSKLTVDKSRWQQGNVFSCSVMHEALHNHYTQKSLSLSPGK
As to B3, a half-maximal response in the assay with bovine collagen I (EC50) required 4.7 nM. Also, in the assay with CD133 protein [2], the IC50 stood at 2.7 nM.

The values are drawn from patent US20130130315A1 (ADVANCECOR, published 2013).
